These results are taken from US20190375821A1 (IBENTRUS, published 2019).

The target in one assay is T1, NRP1 (UniProt O14786-2 22-644, limits assumed).
T1 construct: Control 'natural receptor'; also called neuropilin-1; neuropilin 1
Nature of the assay: ELISA, VEGF165. (An ELISA detects its analyte on a solid surface through an enzyme-linked reagent.)

The target of another assay is T2, NRP2 (UniProt O60462 23-864, limits assumed).
T2 construct: Control 'natural receptor'
Nature of the assay: ELISA, VEGF165.

T2 sequence (O60462 23-864 limits assumed): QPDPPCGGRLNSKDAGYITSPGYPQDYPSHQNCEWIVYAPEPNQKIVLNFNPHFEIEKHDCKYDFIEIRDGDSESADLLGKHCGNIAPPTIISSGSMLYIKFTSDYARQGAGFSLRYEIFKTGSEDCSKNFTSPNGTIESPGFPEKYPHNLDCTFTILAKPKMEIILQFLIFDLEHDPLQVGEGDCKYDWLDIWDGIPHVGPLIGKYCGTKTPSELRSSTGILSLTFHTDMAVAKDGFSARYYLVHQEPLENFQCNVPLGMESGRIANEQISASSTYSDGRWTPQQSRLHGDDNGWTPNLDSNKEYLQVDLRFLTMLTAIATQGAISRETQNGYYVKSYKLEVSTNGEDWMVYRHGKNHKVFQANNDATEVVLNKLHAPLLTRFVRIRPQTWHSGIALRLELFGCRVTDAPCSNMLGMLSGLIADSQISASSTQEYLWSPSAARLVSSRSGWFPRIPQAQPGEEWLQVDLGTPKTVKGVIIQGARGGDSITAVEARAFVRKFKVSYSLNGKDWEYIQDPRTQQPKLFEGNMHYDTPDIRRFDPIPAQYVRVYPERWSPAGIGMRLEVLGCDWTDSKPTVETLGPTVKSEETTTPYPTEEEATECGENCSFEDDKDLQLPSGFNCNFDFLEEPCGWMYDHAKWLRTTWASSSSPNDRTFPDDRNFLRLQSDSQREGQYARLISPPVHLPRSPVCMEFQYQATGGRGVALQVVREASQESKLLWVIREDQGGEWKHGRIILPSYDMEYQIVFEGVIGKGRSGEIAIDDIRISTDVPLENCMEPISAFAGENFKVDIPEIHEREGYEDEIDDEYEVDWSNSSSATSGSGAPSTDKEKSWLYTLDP

B1: VEGF165 (ligand, UniProt P15692-4 27-191, looked up)
chain: APMAEGGGQNHHEVVKFMDVYQRSYCHPIETLVDIFQEYPDEIEYIFKPSCVPLMRCGGCCNDEGLECVPTEESNITMQIMRIKPHQGQHIGEMSFLQHNKCECRPKKDRARQENPCGPCSERRKHLFVQDPQTCKCSCKNTDSRCKARQLELNERTCRCDKPRR
notes: also called VEGFA
For orientation: Kd means the equilibrium constant for the complex coming apart. Low values mean higher affinity, high ones lower affinity. As to B1, the figures for the Kd with NRP1 and with NRP2 were 0.312 nM and 8 nM, respectively.
